Test results taken from paper PMC11106675, “Synthesis of 1,4-azaphosphinine nucleosides and evaluation as inhibitors of human cytidine deaminase and APOBEC3A” (Beilstein Journal of Organic Chemistry, 2024).

Substrate: Nc1ccn([C@H]2C[C@H](O)[C@@H](CO)O2)c(=O)n1
Experiment: UV kinetic assay of hCDA-catalysed 2'-deoxycytidine deamination
Assay type: biochemical, human
Conditions: other: pH 7.4, fitted in the experiment with inhibitor β-anomer of Vb, 25.0 °C
Protocol: We monitored the hCDA-catalysed deamination of dC at 286 nm and analysed the kinetic profiles at various inhibitor concentrations using a global regression analysis of the kinetic data using Lambert’s W function. This method provides better estimates for the Michaelis–Menten constant (KM) and maximum velocity (Vmax) than nonlinear regression analysis of the initial rate (V0). […] Then, KM for the substrate and Ki for each inhibitor were calculated, assuming competitive nature of the inhibitors (Table 1).
We assumed that protonation of Va might result in some inhibition of hCDA. […] This means that the pH value of the assay should be close to pH 1.5 to see any meaningful effect of partially protonated compound Va, but hCDA would be denatured at this pH value. By lowering the pH value to 6.0, dZ (IIc) started to lose potency against hCDA (Table 1), which might be a result of protonation of the pyrimidine ring in dZ (IIc). […]
Figure S10. hCDA (27nM) catalysed deamination of 2'-deoxycitidine (⁓1.5 mM) in the absence (plus) and presence of 5 µM 2'-deoxyzebularine (IIc, asterisk) monitored by measuring absorbance at 286 nm over time in 100 mM NaCl, 1 mM TCEP, 50 mM phosphate buffer at 25 °C, at pH 7.4. […]
where mm(t) calculates the current substrate concentration with respect to the time, t. […] A summary of the measured inhibition […]
Uncertainty of Ki was calculated using error-propagation method. […]

B1: human cytidine deaminase (hCDA) (Homo sapiens) (protein)
chain: MAQKRPACTLKPECVQQLLVCSQEAKKSAYCPYSHFPVGAALLTQEGRIFKGCNIENACYPLGICAERTAIQKAVSEGYKDFRAIAIASDMQDDFISPCGACRQVMREFGTNWPVYMTKPDGTYIVMTVQELLPSSFGPEDLQKTQ
notes: purchased Sigma-Aldrich SRP6372; host or cells: E. coli
In the case of B1, the Km is reported as 240 ± 150 µM.
